Substitutions are numbered along the chain they refer to.
Experiments:
[1] = target: T1, GFP-tagged active Vps21p mutant (Q66L) (S. cerevisiae, UniProt P36017 1-210, Q66L); assay: pull-down; extract of yeast cells expressing GFP-tagged Vps21p mutant incubated with GST-GNB-bound Glutathione sepharose-4B; washed; incubated with Nluc-RbNT at 200 nM; bound fractions blotted with anti-6×His or anti-GFP antibody; conditions: both partners purified
T1 construct: Vps21p (yeast Rab5), Saccharomyces cerevisiae, constitutively active mutant; also called Vps21Q66L; constitutively active Q66L mutant of Vps21p
T1 sequence (looked up): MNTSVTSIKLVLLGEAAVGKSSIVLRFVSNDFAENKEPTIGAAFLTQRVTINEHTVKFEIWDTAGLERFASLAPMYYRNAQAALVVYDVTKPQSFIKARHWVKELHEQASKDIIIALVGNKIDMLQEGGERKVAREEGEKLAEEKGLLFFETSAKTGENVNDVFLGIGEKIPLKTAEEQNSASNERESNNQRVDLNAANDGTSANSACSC

GFP-ALFA-Vps21p = target: T2, GFP-ALFA-Vps21p (S. cerevisiae, UniProt P36017 1-210); assay: pull-down; GFP-ALFA-Vps21p from 600 μg cleared lysate of wild-type yeast held on GST-ANB Glutathione sepharose-4B; washed (20 mM Tris-HCl pH 8.0, 500 mM NaCl, 10 mM MgCl2, 0.1% NP-40); 10 pmole 6×His-RbNT-Nluc added, 1 hr in the cold room; eluted with ALFA peptide; Nluc activity read. Also run on ent3Δ ent5Δ, ent3Δ ent5Δ apl4Δ, pik1-1, pik1-1 ent3Δ, pik1-1 ypt31ts and pik1-1 ypt31ts gga1Δ gga2Δ cells.; conditions: both partners purified
T2 construct: Vps21p (yeast Rab5), Saccharomyces cerevisiae; The ALFA peptide lies between GFP and Vps21p, by the printed name; also called Rab5; yeast Rab5 (Vps21p); not shown: GFP, N-terminal, kept; ALFA peptide, N-terminal, kept
T2 sequence (looked up): T1 sequence (looked up) with L66Q

binding result [1]: binds | binding result (GFP-ALFA-Vps21p): binds
B1: 6×His-Nano luciferase (Nluc)-Rabenosyn5 N-terminal fragment (domain or fragment, human, UniProt Q9H1K0 1-40, looked up)
chain: MASLDDPGEVREGFLCPLCLKDLQSFYQLHSHYEEEHSGE
notes: Rabenosyn-5, human, N-terminal fragment (1-40 a.a.), RbNT; The legends name it 6×His-Nluc-RbNT and the methods 6×His-RbNT-Nluc; The cloning sites (Nluc at XhoI/EcoRI, RbNT at EcoRI/HindIII of pColdI) fit His-Nluc-RbNT; also called Nluc-RbNT; 6×His-RbNT-Nluc; source: E. coli KRX, purified (Ni-NTA agarose); not shown: His6, N-terminal, kept; Nano luciferase, N-terminal, kept

— paper doi:10.1101/2023.03.27.534325, “Distinct role of TGN-resident clathrin adaptors for Rab5 activation in the TGN-endosome trafficking pathway” (bioRxiv, 2023)
